These results are taken from patent US20160083479A1 (AGENCY FOR SCIENCE TECHNOLOGY AND RESEARCH, published 2016).

No end group written: not given here. *: point of attachment. Biotin = O=C1N[C@H]2[C@H](CS[C@H]2CCCCC(=O)*)N1

Assay [1] addresses peptide O28 (human). In words: titration of purified mAb 2 against peptides, ELISA A450; rank order. For orientation: ELISA stands for enzyme-linked immunosorbent assay.
In assay [2] the target is T1, peptide P10.
T1 sequence (peptide, biotin at the N-terminus, linked by the SGSG linker): SGSGCIFSPQIEEASQCPD
The description is as above.

Assay [3] concerns the target T2, peptide P15.
T2 sequence (peptide, biotin at the N-terminus, linked by the SGSG linker): SGSGCIFSPQIEEPSQCPA
Described as above.

Assay [4] addresses T3, peptide P17.
T3 sequence (peptide, biotin at the N-terminus, linked by the SGSG linker): SGSGAIEEPSQCPDCVVSA
The description is as above.

Assay [5] concerns the target T4, peptide P19.
T4 sequence (peptide, biotin at the N-terminus, linked by the SGSG linker): SGSGQIAEPSQCPDCVVSA
Described as above.

Assay [6] concerns the target T5, peptide P20.
T5 sequence (peptide, biotin at the N-terminus, linked by the SGSG linker): SGSGQIEAPSQCPDCVVSA
Described as above.

In assay [7] the target is T6, peptide P25.
T6 sequence (peptide, biotin at the N-terminus, linked by the SGSG linker): SGSGQIEEPSQCADCVVSA
Described as above.

Assay [8] has as its target T7, peptide P7.
T7 sequence (peptide, biotin at the N-terminus, linked by the SGSG linker): SGSGCIFSPQAEEPSQCPD
The assay is described as above.

Assay [9] deals with T8, peptide P9.
T8 sequence (peptide, biotin at the N-terminus, linked by the SGSG linker): SGSGCIFSPQIEAPSQCPD
Described as above.

Assay [10] addresses T9, peptide O27.
T9 construct: Negative control peptide
T9 peptide: Biotin-SGSGQSEVHCIFSPQIEEP
Kind of assay: Pepscan / alanine scan peptide ELISA on streptavidin plates, A450. Here is the method: Variations of peptides O28 and O29, where each amino acid residue was sequentially substituted for an alanine residue, were synthesised. Streptavidin-coated plates (Pierce/Thermo Scientific, #15520) were blocked with 3% BSA/PBS at room temperature. The peptides were dissolved in DMSO and stored according to manufacturer's recommendation. Streptavidin-coated plates were coated with each peptide (5 μg/mL) overnight at room temperature. Wells were washed before hybridoma supernatant or purified monoclonal antibody was added to the each well. HRP-conjugated anti-mouse antibody was added to detect bound monoclonal antibodies. ELISA substrate (Bio-Rad #172-1067) solution was prepared freshly according to the manufacturer's instructions and added to the wells. Colour change was monitored by eye and the reaction was stopped by adding 100 mM sulphuric acid. Absorbance was read at 450 nm in a microplate reader (SPECTRAmax PLUS³⁸⁴, Molecular Device, U.S.A). The crystal structure of c-Met extracellular domain, accession number 1 SHY, was obtained from Protein Data Base (PDB). Computer imaging of the epitopes were analysed by PyMol (DeLano Scientific LLC, U.S.A) software.
Pepscan analysis was used to determine the region of c-Met α-chain bound by mAb 2. […] Binding of the antibody was detected by colorimetric assay and analysed by absorbance reading at […]. […]

B1: mAb 2 (antibody, IgG1, V domains shown)
VH: QVQLKESGGGLVQPGGSLTLSCATSGFTFTDHYMSWVRQPPGKALEWLAFIRNKAKGYTTEYNASVRGRFTISRDNSQNIVYLQMNTLRTEDSATYYCARDGVGIAYWGQGTLVTVSA
VL: SIVMTQSPLSLPVSLGDQASISCRSSQSLENINGNTYLNWYFQKPGQSPQLLIYRVSNRVSGVLDRFSGSGSGTDFTLKITRVEAEDLGVYFCLQVTHVPWTFGGGTKLEIK
notes: Murine monoclonal antibody purified from ascites (or hybridoma supernatant in the first Pepscan); constant regions are not; also called full length murine mAb 2
As to B1, the Increase mAb 2 binding in ascending order (rank) in assay [1] worked out at 11; in assay [2] it was 7; in assay [3] it was 10; in assay [4] it was 5; in assay [5], 6; in [6] it was 9. Also, the Increase mAb 2 binding in ascending order (rank) in [7] turned out to be 3; in assay [8], 8; in [9], 4. The binding result in assay [10] was “no binding”.
